The text below walks through data of article PMC5869772, “Quantitative profiling of BATF family proteins/JUNB/IRF hetero-trimers using Spec-seq” (BMC Molecular Biology, 2018).

For data set [1], the system named is BATF3;JUNB (human;human). The data set is described as follows: Spec-seq (EMSA). Particulars: no IRF; 100 nM BATFx-JUNB, 150 nM IRF, 1 uM dsDNA library; 50 mM K acetate, 20 mM Tris-acetate, 10 mM Mg acetate, 100 ug/ml BSA, pH 7.9 (25 C), 10% glycerol; 30 min on …. On the technique in general: In EMSA bound probe runs differently from free probe, usually more slowly.

The test system of data set [2] is BATF2 (bZIP);JUNB (human;human). The data set is described as follows: Spec-seq (EMSA). The following applies: 100 nM BATFx-JUNB, 150 nM IRF, 1 uM dsDNA library, 50 mM K acetate, 20 mM Tris-acetate, 10 mM Mg acetate, 100 ug/ml BSA, pH 7.9 (25 C), 10% glycerol, 30 min on ….
In data set [3] the test system is BATF;JUNB (human;human). The data set is described as follows: Spec-seq (EMSA). Particulars: no IRF; 100 nM BATFx-JUNB, 150 nM IRF, 1 uM dsDNA library; 50 mM K acetate, 20 mM Tris-acetate, 10 mM Mg acetate, 100 ug/ml BSA, pH 7.9 (25 C), 10% glycerol; 30 min on ….
For data set [4], the system named is BATF;JUNB;IRF8 (human;human;mouse). As to the kind of experiment: Spec-seq (EMSA). The following applies: reference; 100 nM BATFx-JUNB, 150 nM IRF, 1 uM dsDNA library; 50 mM K acetate, 20 mM Tris-acetate, 10 mM Mg acetate, 100 ug/ml BSA, pH 7.9 (25 C), 10% glycerol; 30 min on ….
Data set [5] deals with BATF3;JUNB;IRF8 (human;human;mouse). The data set is described as follows: Spec-seq (EMSA). Particulars: reference; 100 nM BATFx-JUNB, 150 nM IRF, 1 uM dsDNA library; 50 mM K acetate, 20 mM Tris-acetate, 10 mM Mg acetate, 100 ug/ml BSA, pH 7.9 (25 C), 10% glycerol; 30 min on ….
For data set [6], the system named is BATF3;JUNB;IRF4 (human;human;human). The data set is described as follows: Spec-seq (EMSA). The following applies: reference; 100 nM BATFx-JUNB, 150 nM IRF, 1 uM dsDNA library; 50 mM K acetate, 20 mM Tris-acetate, 10 mM Mg acetate, 100 ug/ml BSA, pH 7.9 (25 C), 10% glycerol; 30 min on ….
Data set [7] relates to BATF;JUNB;IRF4 (human;human;human). As to the kind of experiment: Spec-seq (EMSA). Particulars: reference; 100 nM BATFx-JUNB, 150 nM IRF, 1 uM dsDNA library; 50 mM K acetate, 20 mM Tris-acetate, 10 mM Mg acetate, 100 ug/ml BSA, pH 7.9 (25 C), 10% glycerol; 30 min on ….
In data set [8] the test system is BATF2 (bZIP);JUNB;IRF8 (human;human;mouse). The data set is described as follows: Spec-seq (EMSA). Particulars: reference; 100 nM BATFx-JUNB, 150 nM IRF, 1 uM dsDNA library; 50 mM K acetate, 20 mM Tris-acetate, 10 mM Mg acetate, 100 ug/ml BSA, pH 7.9 (25 C), 10% glycerol; 30 min on ….
Data set [9] relates to BATF2 (bZIP);JUNB;IRF4 (human;human;human). As to the kind of experiment: Spec-seq (EMSA). Particulars: reference; 100 nM BATFx-JUNB, 150 nM IRF, 1 uM dsDNA library; 50 mM K acetate, 20 mM Tris-acetate, 10 mM Mg acetate, 100 ug/ml BSA, pH 7.9 (25 C), 10% glycerol; 30 min on ….
Data set [10] addresses T1, IRF8 (full length mouse) (mouse, UniProt P23611 1-424).
T1 construct: IRF8 (interferon regulatory factor 8), mouse, full length; also called IRFx; source: E. coli BL21(DE3), purified (Strep-Tactin Superflow), strep-tag cleaved off by thrombin; not shown: Strep-tag, N-terminal, cleaved
T1 sequence (looked up): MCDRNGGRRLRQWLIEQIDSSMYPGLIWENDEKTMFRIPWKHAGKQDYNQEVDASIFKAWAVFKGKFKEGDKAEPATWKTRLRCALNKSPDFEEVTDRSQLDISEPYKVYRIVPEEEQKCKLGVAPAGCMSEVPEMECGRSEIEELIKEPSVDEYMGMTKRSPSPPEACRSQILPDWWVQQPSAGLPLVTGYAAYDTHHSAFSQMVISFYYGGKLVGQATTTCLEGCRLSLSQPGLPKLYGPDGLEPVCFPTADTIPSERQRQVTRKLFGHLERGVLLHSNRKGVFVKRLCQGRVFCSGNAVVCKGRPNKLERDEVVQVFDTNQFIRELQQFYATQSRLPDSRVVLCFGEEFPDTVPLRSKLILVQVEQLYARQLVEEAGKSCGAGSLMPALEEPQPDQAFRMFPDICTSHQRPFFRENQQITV
The data set is described as follows: native gel or EMSA; complex formed on a dsDNA library: 100 nM BATFx-JUNB heterodimer, 150 nM IRF protein, 1 uM dsDNA library in 1x NEB Cutsmart buffer (pH 7.9) with 10% glycerol, 30 min on ice; native 9% PAGE in Tris/Glycine at 4 °C. The following applies: both partners purified.

Data set [11] addresses T2, IRF4 (full length human) (human, UniProt Q15306 1-451).
T2 construct: IRF4 (interferon regulatory factor 4), human, full length; also called IRFx; source: E. coli BL21(DE3), purified (Strep-Tactin Superflow), strep-tag cleaved off by thrombin; not shown: Strep-tag, N-terminal, cleaved
T2 sequence (looked up): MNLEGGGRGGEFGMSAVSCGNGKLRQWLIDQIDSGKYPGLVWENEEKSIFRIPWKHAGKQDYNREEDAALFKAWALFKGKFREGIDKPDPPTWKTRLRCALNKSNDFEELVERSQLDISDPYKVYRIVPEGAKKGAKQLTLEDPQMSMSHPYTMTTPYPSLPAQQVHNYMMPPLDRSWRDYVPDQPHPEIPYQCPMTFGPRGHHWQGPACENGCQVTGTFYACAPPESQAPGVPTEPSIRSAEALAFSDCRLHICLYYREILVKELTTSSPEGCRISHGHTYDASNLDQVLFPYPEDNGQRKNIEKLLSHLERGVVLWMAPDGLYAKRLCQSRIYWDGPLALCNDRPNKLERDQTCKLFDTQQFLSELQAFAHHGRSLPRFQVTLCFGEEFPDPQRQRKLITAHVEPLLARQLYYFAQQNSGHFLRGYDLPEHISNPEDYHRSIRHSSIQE
Described as above. Particulars: both partners purified.

Take CRE (TGACGTCA): the figures for the binding signal (kT (-ln bound/unbound)) in data set [1], in [2] (no IRF) and in [3] were -1.75, -1.32 and -1.05, respectively.
In the case of TRE-0sp (TGAGTCAT), the binding signal (kT vs TRE-0sp) in [4], in data set [5], in data set [6], in [7], in [8] and in [9] was 0 in each case. In addition, the results for the binding signal (kT (-ln bound/unbound)) in data set [2] and in data set [3] were -0.903 and -1.05, respectively.
As to TRE-1sp (ATGAGTCA), the binding signal (kT (-ln bound/unbound)) in data set [2] was -1.01; in data set [3], -1.25.

B1: BATF–JUNB hetero-dimer (complex, human)
chain 1: MPHSSDSSDSSFSRSPPPGKQDSSDDVRRVQRREKNRIAAQKSRQRQTQKADTLHLESEDLEKQNAALRKEIKQLTEELKYFTSVLNSHEPLCSVLAASTPSPPEVVYSAHAFHQPHVSSPRFQP
chain 2: KMNHVTPPNVSLGATGGPPAGPGGVYAGPEPPPVYTNLSSYSPASASSGGAGAAVGTGSSYPTTTISYLPHAPPFAGGHPAQLGLGRGASTFKEEPQTVPEARSRDATPPVSPINMEDQERIKVERKRLRNRLAATKCRKRKLERIARLEDKVKTLKAENAGLSSTAGLLREQVAQLKQKVMTHVSNGCQLLLGVKGHAF
notes: BATF, human, full length; Heterodimer formed by co-expression before purification; also called BATFx–JUNB; source: SHuffle T7 Express E. coli, co-expressed, purified (Ni-NTA agarose), mCherry cleaved off with ProTEV Plus; not shown: mCherry, N-terminal, cleaved
Take B1: the binding result in data set [10] and in [11] was “binds” throughout.

B2: BATF2–JUNB hetero-dimer (complex, human)
chain 1: MHLCGGNGLLTQTDPKEQQRQLKKQKNRAAAQRSRQKHTDKADALHQQHESLEKDNLALRKEIQSLQAELAWWSRTLHVHERLCPMDCASCSAPGLLGCWDQAEGLLGPGPQGQHGCREQLELFQTPGSCYPAQPLSPGPQP
chain 2: B1 chain 2
notes: Heterodimer formed by co-expression before purification; also called BATFx–JUNB; source: SHuffle T7 Express E. coli, co-expressed, purified (Ni-NTA agarose), mCherry cleaved off with ProTEV Plus; not shown: mCherry, N-terminal, cleaved
On to B2, for which the binding result in [10] and in data set [11] was “binds” throughout.
